For one substance, stoichiometry N results are on record in PMC7773282.

Like-named read-outs stand apart in the source and are kept apart here.

Assay [1] deals with human proton-activated chloride channel (PAC), reconstituted in MSP3D1 lipid nanodiscs (human) (UniProt Q9H813). Kind of assay: cryo-EM structure.
Assay [2] has the same target. As to the kind of experiment: cryo-EM structure. This is another data set of the same source.

As a reminder, the stoichiometry N is a count of units in the complex or per binding partner.

For “human proton-activated chloride channel (PAC), reconstituted in MSP3D1 lipid nanodiscs (from UniProt Q9H813 1-350) (natural protein)”, the stoichiometry N in assay [1] and in assay [2] was 3 in each case.
